The text below walks through data of patent US11266968B2, “Mineralizing biosurfactant used for nucleating silica” (THE UNIVERSITY OF QUEENSLAND, priority 2013, dated 2022).

Data set [1] can be described thus: Precipitation of silica from TEOS by biosurfactants. As to conditions: 400 μM peptide, 25 mM HEPES pH 7.5 and 8.0, 80 mM TEOS, room temperature. As for the experimental part: To test whether biosurfactants SEQ ID NO: 153 and SEQ ID NO: 154 were able to precipitate silica, separate aqueous solutions of SEQ ID NO: 153 and SEQ ID NO: 154 (400 μM) in HEPES buffer (25 mM) at pH 7.5 and 8.0 were prepared and TEOS (80 mM) was added. A solution of each biosurfactant was retained without TEOS as a control. The mixtures were gently stirred at room temperature. A transparent gel-like precipitate formed within a few minutes in those compositions which had TEOS added whereas the control remained a solution. The precipitate was isolated and extensively washed with water and vacuum dried. The precipitate was analyzed by elemental analysis using EDS in conjunction with scanning electron microscopy (SEM, JEOL 6610). […] Excess oxygen, carbon and sulfur also found in the analysis were consistent with entrapped peptide.

Data set [2] is described as follows: Dynamic light scattering of nanoemulsions and nanocapsules. To be noted: for Number-average diameter (dn) of oil droplets in nanoemulsion / Polydispersity index (PDI) of nanoemulsion: 400 μM peptide, 800 μM ZnCl2, 2% v/v Miglyol 812, HEPES pH 7.0, after sonication; for Increase in number-average diameter of nanoemulsion after dialysis: dialysis 20 hours against HEPES 25 mM, pH 7.5 or 8.0, 10 kDa membrane; for PDI of nanocapsules: 80 mM TEOS, 25 mM HEPES. It is filed as physicochemical. As for the experimental part: (§1) The size distribution profile of the nanoemulsions and nanocapsules was determined by dynamic light scattering (DLS, Malvern Zetasizer Nano ZS) and the samples were diluted by a factor of 100 prior to the measurement. The morphology and shell thickness of the nanocapsules were examined by transmission electron microscopy (TEM, JEOL 1010, 100 kV accelerating voltage). Samples (2 μL) were taken directly from the reaction mixtures, deposited onto Formvar-coated copper grids (200 mesh), and left to air-dry prior to examination. Samples were also analyzed for high-resolution (HR) TEM (JEOL 2100, 200 kV accelerating voltage) equipped with an energy dispersive X-ray spectroscopy (EDS) detector. The formation of amorphous silica was verified by selected area electron diffraction (SAED) in HRTEM.
Separate solutions of SEQ ID NO: 153 (400 μM) and SEQ ID NO: 154 (400 μM) in HEPES buffer (25 mM, pH 7.0) in the presence of ZnCl2 (800 μM) were mixed with Miglyol® 812 (2% v/v) by sonication (Branson Sonifier 450, 10 W, 4×30 s burst and interspersed with cooling in an ice bath for 60 s). After sonication, the compositions were macroscopically identical and homogeneous with cloudy appearance.
The nanoemulsion compositions (1 mL) were dialyzed against HEPES buffer (500 mL, 25 mM, pH 7.5 or 8.0) using a 10 kDa cellulose membrane to adjust pH of each nanoemulsion and to remove residual peptide. After dialysis for 20 hours there was only a slight increase, approximately 5%, in the number-average diameter of nanoemulsions stabilized by either SEQ ID NO: 153 or SEQ ID NO: 154 and the PDIs remained similar. The nanoemulsions were stable to dialysis.
(§2) Each of the dialyzed nanoemulsion compositions from Example 2 at pH 7.5 or 8.0 were divided into a number of separate glass vials. One composition of each peptide nanoemulsion at each pH was retained as a control. To the other compositions, three concentrations of TEOS were added to separate vials, 20 mM, 40 mM and 80 mM, and the compositions were gently stirred for 20 to 50 hours. The compositions were then analyzed by DLS and a size increase consistent with the formation of a thick layer surrounding the oil droplet core in TEOS-containing solutions was observed.

A short description of data set [3]: TEM measurement of nanocapsule silica shell thickness and diameter. The data set is classed as physicochemical. As for the experimental part:
as §1, §2
The shell thickness of at least 100 individual nanocapsules were measured by TEM (a dark ring around the perimeter of the bright core). The silica layer formed on SEQ ID NO: 153 and SEQ ID NO: 154 nanoemulsions at pH 7.5 was 22±5 nm and 12±2 nm thick respectively and at pH 8.0, 35±5 nm and 27±6 nm respectively.
SEQ ID NO: 155 was used to facilitate formation and stabilization of nanoemulsions, and subsequently direct nucleation and growth of silica shell encasing the nanoemulsion template. A solution of SEQ ID NO: 155 (115 μM) in HEPES buffer (25 mM, pH 7.5) was mixed with Miglyol® 812 oil (10% v/v) by sonication at 10 W using Branson Sonifier 450 for 4×30 s burst and interspersed with cooling in an ice bath for 60 s. An aliquot of SEQ ID NO: 155 nanoemulsions (400 μL) was transferred to a glass vial and added with TEOS (80 mM). The mixture was then stirred at room temperature for 20 h to form silica shell surrounding the nanoemulsions.

[4] abbreviates: pH 7.5, 20 hours silicification.
Setting [5] is: pH 8.0, 20 hours silicification.
[6] abbreviates: pH 7.5, at least 100 nanocapsules by TEM.
Setting [7] is: pH 8.0, at least 100 nanocapsules by TEM.
Where [8] appears, read: 115 μM protein, 10% v/v Miglyol 812, pH 7.5, 80 mM TEOS, 20 h.

Regarding “Ac-MKQLAHSVSRLEHA-RKKRKKRKKRKKGGGY-CONH2 (Ac-MKQLAHSVSRLEHARKKRKKRKKRKKGGGY-NH2) [SEQ ID NO: 154, custom synthesized mineralizing biosurfactant peptide, Mw 3632.4]”, the “Ability to precipitate/nucleate silica” value in data set [1] is “can nucleate silica”. For the same molecule, the “Number-average diameter (dn) of oil droplets in nanoemulsion” value in data set [2] is about 40 nm. Besides, in data set [2], the “Polydispersity index (PDI) of nanoemulsion” value was 0.293. The “Increase in number-average diameter of nanoemulsion after dialysis” value in data set [2] is “approximately 5%”. Further, the PDI of nanocapsules in data set [2] (setting [4]) was determined as 0.146; in data set [2] (setting [5]), 0.233. The Silica shell thickness is listed as 5±1 nm in data set [3] (30 hours, 20 mM TEOS, 25 mM HEPES pH 7.5); 10±2 nm in data set [3] (30 hours, 40 mM TEOS, 25 mM HEPES pH 7.5); 16±3 nm in data set [3] (30 hours, 80 mM TEOS, 25 mM HEPES pH 7.5); 12±2 nm in data set [3] (setting [6]); 27±6 nm in data set [3] (setting [7]).
Turning to “Ac-MKQLAHSVSRLEHA-SSKKSGSYGGSKGSKRRIL-NH2 (Ac-MKQLAHSVSRLEHASSKKSGSYGGSKGSKRRIL-NH2) [SEQ ID NO: 153, custom synthesized mineralizing biosurfactant peptide, Mw 3643.2]”, in data set [1], the “Ability to precipitate/nucleate silica” value is recorded as “can nucleate silica”. Moreover, in data set [2], the “Number-average diameter (dn) of oil droplets in nanoemulsion” value is listed as about 80 nm. The “Polydispersity index (PDI) of nanoemulsion” value in data set [2] was found to be 0.329. For the same molecule, the “Increase in number-average diameter of nanoemulsion after dialysis” value in data set [2] was “approximately 5%”. The PDI of nanocapsules was found to be 0.242 in data set [2] (setting [4]) and 0.794 in data set [2] (setting [5]). Moreover, the values for the Silica shell thickness in data set [3] (setting [6]) and in data set [3] (setting [7]) were 22±5 nm and 35±5 nm, respectively.

B1: MDPS MKQLADS LHQLARQ VSRLEHA DPS MKQLADS LHQLARQ VSRLEHA DPS MKQLADS LHQLARQ VSRLEHA DPS MKQLADS LHQLARQ VSRLEHA EPS-RKKRKKRKKRKKGGGY (protein)
chain: MDPSMKQLADSLHQLARQVSRLEHADPSMKQLADSLHQLARQVSRLEHADPSMKQLADSLHQLARQVSRLEHADPSMKQLADSLHQLARQVSRLEHAEPSRKKRKKRKKRKKGGGY
notes: recombinant mineralizing biosurfactant protein produced in Escherichia coli
As for B1, in data set [3] (setting [8]), the “Outer diameter of nanocapsules” value is listed as 249±29 nm and the Silica shell thickness stood at 26±2 nm.
